Assay results published in publication PMC6746995, “Nanomechanics of tip-link cadherins” (Scientific Reports, 2019).

Target: the molecule itself
Assay: AFM imaging + single-molecule force spectroscopy (AFM-SMFS); purified ectodomains in 50 mM TrisHCl/150 mM NaCl/1 mM CaCl2 pH 7.5; imaging on freshly cleaved mica, tapping mode in liquid; SMFS on NTA-Ni2+ coverslips through the His tags, differing persistence length across a trace taken as two cadherins stretched in parallel

B1: His-tagged full murine PCDH15 ectodomain (domain or fragment)
chain: not shown
notes: protocadherin 15 (PCDH15), murine, full ectodomain (11 EC domains), UniProtKB Q99PJ1; also called protocadherin 15; full-length PCDH15 ectodomain; not shown: His tag, C-terminal, kept
B1: binds.
